Measurements reported in US20170037133A1.

Tests used:
CD112 (Nectin-2, PVRL2) = CD112 (Nectin-2, PVRL2) (UniProt Q92692); assay: cell-based or functional assay
CD155 (PVR) = CD155 (PVR) (UniProt P15151); assay: cell-based or functional assay

Sequence of UniProt Q92692 (Q92692 32-538 limits assumed): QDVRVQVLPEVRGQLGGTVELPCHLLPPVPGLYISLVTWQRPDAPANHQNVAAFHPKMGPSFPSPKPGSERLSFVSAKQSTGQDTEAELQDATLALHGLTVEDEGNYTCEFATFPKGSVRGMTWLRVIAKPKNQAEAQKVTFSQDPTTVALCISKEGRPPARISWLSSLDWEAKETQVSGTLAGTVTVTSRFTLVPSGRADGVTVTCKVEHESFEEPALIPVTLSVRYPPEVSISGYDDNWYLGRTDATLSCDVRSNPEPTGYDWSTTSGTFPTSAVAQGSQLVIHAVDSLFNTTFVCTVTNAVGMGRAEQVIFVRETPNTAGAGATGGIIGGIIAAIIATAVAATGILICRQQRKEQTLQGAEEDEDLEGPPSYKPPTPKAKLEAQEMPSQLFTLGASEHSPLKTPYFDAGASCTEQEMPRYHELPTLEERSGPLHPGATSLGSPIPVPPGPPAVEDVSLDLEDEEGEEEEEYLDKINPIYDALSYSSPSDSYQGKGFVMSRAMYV

MV4-11 cell lysis in the presence of 0.1 ng/ml AMG 330 (CD112 (Nectin-2, PVRL2))	MV4-11 cell lysis in the presence of 0.1 ng/ml AMG 330 (CD155 (PVR))	Substance	cell kill of MV4-11 (7-AAD positive target cells, 24 h co-culture with PBMCs, no AMG 330) (CD112 (Nectin-2, PVRL2))	cell kill of MV4-11 (7-AAD positive target cells, 24 h co-culture with PBMCs, no AMG 330) (CD155 (PVR))
57.9%	–	mouse anti-PVRL2 clone L14 (antibody)	40.4%	–
–	49.7%	mouse anti-PVR clone D171 (antibody)	–	33%
